Numbering of substitutions follows the chain as printed. Several values for one entry are separate records, joined by “and”; a condition that tells them apart may be missing. Equal values may be shown once. Read-outs that look alike come from different tables or passages of the source.

For assay [1], the target named is T1, cynomolgus DLL4 overexpressed on CHO cells (cynomolgus, UniProt Q9NR61 27-685 (human entry)).
T1 construct: also called CHO-cDLL4; cDLL4
T1 chain: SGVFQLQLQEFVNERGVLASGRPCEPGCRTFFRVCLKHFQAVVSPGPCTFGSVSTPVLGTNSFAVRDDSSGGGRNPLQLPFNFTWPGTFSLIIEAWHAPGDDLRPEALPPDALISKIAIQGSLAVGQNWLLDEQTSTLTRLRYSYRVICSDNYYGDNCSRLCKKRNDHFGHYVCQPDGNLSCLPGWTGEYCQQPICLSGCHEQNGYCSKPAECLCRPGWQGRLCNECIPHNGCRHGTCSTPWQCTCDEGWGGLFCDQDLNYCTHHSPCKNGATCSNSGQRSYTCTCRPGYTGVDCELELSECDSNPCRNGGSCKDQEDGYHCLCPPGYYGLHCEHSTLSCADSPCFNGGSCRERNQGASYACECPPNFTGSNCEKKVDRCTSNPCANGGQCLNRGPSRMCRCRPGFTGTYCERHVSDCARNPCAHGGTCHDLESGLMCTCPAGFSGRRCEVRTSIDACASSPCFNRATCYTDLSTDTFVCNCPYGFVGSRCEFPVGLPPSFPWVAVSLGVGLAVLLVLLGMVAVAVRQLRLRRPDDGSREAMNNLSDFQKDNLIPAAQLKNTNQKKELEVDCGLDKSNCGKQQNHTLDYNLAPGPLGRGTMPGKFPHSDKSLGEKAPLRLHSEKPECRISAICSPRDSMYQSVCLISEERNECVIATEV
Description: FACS, CHO-cDLL4 cells. The protocol:
Additionally, in order to determine cross-reactivity of the bispecific VHHs to murine and cynomolgus DLL4, a FACS binding experiment is performed. Briefly, CHO cells overexpressing mouse and cynomolgus DLL4 are used for a titration binding experiment of the VHHs. After a 30 min incubation on ice, all samples are washed and a 2-step detection using anti-c-myc followed by goat-anti mouse IgG-PE labeled is performed. CHO cells overexpressing human DLL4 are taken as reference. The mean MCF value is determined using a FACS Array and used for calculation of the EC₅₀ value (Table 24; FIG. 19).
In general terms: Flow cytometry measures light scatter and fluorescence of single cells or particles in a stream.

Another assay concerns the target T2, rat DLL4 (rat, UniProt D3ZHH1 28-530, limits assumed).
T2 construct: also called rDLLA; rDLL4
Description: binding ELISA, coated rat DLL4. As to the method: (§1) In order to determine cross-reactivity to mouse DLL4 and rat DLL4, a binding ELISA is performed. […] Wells are blocked with a 1% casein solution. VHHs are applied as dilution series and binding is detected biotinylated anti-VHH 1A4 followed by extravidin-HRP. 1A4 is an anti-VHH VHH (generated in-house by Ablynx NV). As reference binding to human DLL4 is measured.
(In an ELISA, binding on a coated surface is turned into a signal by an enzyme label.)

The target of a further assay is T3, recombinant mouse DLL4 (mouse, UniProt Q9JI71 27-532).
T3 construct: extracellular domain; also called rmDLL4; mDLL4; not shown: C-terminal His tag
T3 sequence (Q9JI71 27-532): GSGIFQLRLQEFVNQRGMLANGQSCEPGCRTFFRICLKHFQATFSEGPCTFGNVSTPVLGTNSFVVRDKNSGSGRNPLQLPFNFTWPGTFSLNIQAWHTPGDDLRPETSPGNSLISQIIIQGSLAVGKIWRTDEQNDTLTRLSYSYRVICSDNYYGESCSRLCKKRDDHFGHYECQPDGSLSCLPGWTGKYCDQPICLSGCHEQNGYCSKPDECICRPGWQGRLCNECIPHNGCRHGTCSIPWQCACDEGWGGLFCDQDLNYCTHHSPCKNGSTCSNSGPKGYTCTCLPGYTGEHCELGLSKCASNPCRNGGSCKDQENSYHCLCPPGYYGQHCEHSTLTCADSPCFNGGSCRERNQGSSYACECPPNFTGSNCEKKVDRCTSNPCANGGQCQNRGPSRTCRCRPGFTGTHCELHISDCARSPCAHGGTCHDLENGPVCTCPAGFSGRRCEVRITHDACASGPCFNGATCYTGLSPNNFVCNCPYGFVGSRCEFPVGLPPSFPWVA
Nature of the assay: binding ELISA, coated mDLL4. The protocol:
as §1

Assay [2] deals with T4, cynomolgus Ang2 (cynomolgus).
T4 construct: also called cAng2; cyno Ang2
Nature of the assay: competition ELISA: cAng2 binding to cTie2.

The target of assay [3] is T5, mouse Ang2 (mouse, UniProt O35608 19-496, limits assumed).
T5 construct: also called mAng2
T5 sequence (looked up): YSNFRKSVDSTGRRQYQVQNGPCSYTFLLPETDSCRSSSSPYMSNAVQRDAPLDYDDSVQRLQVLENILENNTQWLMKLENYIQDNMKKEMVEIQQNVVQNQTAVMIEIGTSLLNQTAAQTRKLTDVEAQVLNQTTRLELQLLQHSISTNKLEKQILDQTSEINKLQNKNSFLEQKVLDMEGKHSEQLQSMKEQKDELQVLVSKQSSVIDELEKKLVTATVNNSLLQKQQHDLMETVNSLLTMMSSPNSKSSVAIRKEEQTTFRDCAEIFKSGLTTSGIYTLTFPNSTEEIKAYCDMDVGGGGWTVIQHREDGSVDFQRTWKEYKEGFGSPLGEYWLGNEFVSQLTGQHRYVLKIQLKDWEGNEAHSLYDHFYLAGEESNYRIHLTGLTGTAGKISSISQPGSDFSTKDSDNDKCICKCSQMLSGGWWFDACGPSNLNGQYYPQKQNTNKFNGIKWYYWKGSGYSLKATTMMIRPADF
Nature of the assay: competition ELISA: mAng2 binding to mTie2.

Assay [4] addresses T6, human Ang2 (human, UniProt O15123 19-496, limits assumed).
T6 construct: also called hAng2; human Angiopoietin2
T6 sequence (looked up): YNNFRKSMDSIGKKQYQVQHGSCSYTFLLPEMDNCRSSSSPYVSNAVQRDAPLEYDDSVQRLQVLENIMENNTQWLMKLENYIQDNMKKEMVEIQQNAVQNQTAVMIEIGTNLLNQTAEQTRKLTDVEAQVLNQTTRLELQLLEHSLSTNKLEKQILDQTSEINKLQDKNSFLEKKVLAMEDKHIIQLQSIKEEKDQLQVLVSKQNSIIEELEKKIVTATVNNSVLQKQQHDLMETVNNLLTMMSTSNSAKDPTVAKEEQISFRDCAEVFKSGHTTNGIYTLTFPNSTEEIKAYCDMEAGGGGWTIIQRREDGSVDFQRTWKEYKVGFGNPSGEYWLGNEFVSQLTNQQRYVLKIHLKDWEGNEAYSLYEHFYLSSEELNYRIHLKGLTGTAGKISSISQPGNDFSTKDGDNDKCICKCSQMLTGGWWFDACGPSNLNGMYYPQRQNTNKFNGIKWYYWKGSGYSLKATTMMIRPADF
Description: competition ELISA: hAng2 binding to hTie2.

The target of assay [5] is T5, mouse Ang2. Nature of the assay: competition ELISA: mAng2 binding to mTie2. The source holds these as a separate data set.
Assay [6] addresses T4, cynomolgus Ang2. Nature of the assay: competition ELISA: cAng2 binding to cTie2. The source holds these as a separate data set.
Assay [7] deals with T6, human Ang2. Description: competition ELISA: hAng2 binding to hTie2. This is another data set of the same source.
Assay [8] addresses T7, recombinant human DLL4 (human, UniProt Q9NR61 25-522).
T7 construct: R&D Systems C-terminally His-tagged extracellular domain; also called rhDLL4; hDLL4; not shown: C-terminal His tag
Description: SPR Biacore T100; rhDLL4 on chip; heterogeneous binding curve, no 1:1 fit. For orientation: Surface plasmon resonance follows binding to a sensor surface in real time, without labels.

Assay [9] addresses T7, recombinant human DLL4. Nature of the assay: cell-based or functional assay.
Assay [10] deals with human DLL4, full length, overexpressed on CHO or HEK293 cells (human, UniProt Q9NR61 27-685). Description: cell-based or functional assay.
The target in assay [11] is T8, recombinant human Jagged-1 (Alexis) (human, UniProt P78504 34-1067, limits assumed).
T8 construct: also called hJagged-1; hJAG1
Nature of the assay: binding ELISA on coated rhJagged-1. As to the method: Absence of binding to homologous ligands human DLL1 and human Jagged-1 is assessed via solid phase binding assay (ELISA). In brief, human DLL1 (Alexis, San Diego, Calif., USA) and human Jagged-1 (Alexis, San Diego, Calif., USA) are coated overnight at 4° C. at 1 μg/mL in a 96-well MaxiSorp plate (Nunc, Wiesbaden, Germany). Wells are blocked with a casein solution (1% in PBS). VHHs are applied as dilution series and binding is detected using a mouse anti-myc (Roche) and an anti-mouse-AP conjugate (Sigma, St. Louis, Mo., USA).

Assay [12] deals with recombinant human DLL4 extracellular domain, C-terminally His-tagged (R&D Systems) (human, UniProt Q9NR61 25-522, biotinylated in the competition assays (sites not given)). Nature of the assay: cell-based or functional assay.

T2 sequence (D3ZHH1 28-530 limits assumed): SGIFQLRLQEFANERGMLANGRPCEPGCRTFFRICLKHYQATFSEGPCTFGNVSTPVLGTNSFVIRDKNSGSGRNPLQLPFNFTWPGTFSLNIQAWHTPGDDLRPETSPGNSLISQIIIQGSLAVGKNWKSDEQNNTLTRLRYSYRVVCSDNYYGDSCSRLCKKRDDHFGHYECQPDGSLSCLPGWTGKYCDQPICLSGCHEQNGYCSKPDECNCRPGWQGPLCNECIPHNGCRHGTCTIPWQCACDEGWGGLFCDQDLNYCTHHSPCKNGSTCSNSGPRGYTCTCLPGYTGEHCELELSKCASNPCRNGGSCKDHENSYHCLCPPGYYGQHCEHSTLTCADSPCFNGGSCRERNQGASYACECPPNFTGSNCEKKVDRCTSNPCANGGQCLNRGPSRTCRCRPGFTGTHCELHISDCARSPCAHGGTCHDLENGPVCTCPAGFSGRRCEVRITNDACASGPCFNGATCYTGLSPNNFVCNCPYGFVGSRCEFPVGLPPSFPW

B1: DLLBII00018 (VHH)
VHH: DVQLVESGGGLVQPGGSLRLSCAASGRTFSSYAMAWYRQAPGKEREYVAAIRWSGGTAYYADSVKGRFTISRDNAKNTVYLQMNSLRPEDTAVYYCANRAPDTRLAPYEYDHWGQGTLVTVSS
For B1, the figures for the 50% effective concentration (EC50) (in [1]; in the assay with rat DLL4; with recombinant mouse DLL4) were 0.8 nM, 2.6 nM and 3.3 nM, respectively.

B2: 00956 (VHH)
VHH: EVQLVESGGGLVQPGGSLRLSCAASGFTLDDYAIGWFRQAPGKEREGVSAIRSSGGSTYYADSVKGRFTISSDNSKNTVYLQMNSLRPEDTAVYYCAAVPAGRLRFGEQWYPLYEYDAWGQGTLVTVSS
In the case of B2, the “IC50 (read off the curve)” value is about 2 nM with cynomolgus Ang2 [2], about 2 nM with mouse Ang2 [3] and about 1 nM in the assay with human Ang2 [4].

B3: 00938 (VHH)
VHH: B2 VHH with A24V, F27I, F106Y, L113I
B3: the “IC50 (read off the curve)” value with mouse Ang2 [5] was about 0.06 nM; with cynomolgus Ang2 [6] it was about 0.1 nM; in the assay with human Ang2 [7], about 0.04 nM.

B4: DLLBII104G01 (VHH)
VHH: EVQLVESGGGLVQAGGSLRLSCAASGFTFDDYAIGWFRQAPGKEREGVSCISSSDGSTYYADSVKGRFTISSDNAKNTVYLQMNSLKPEDTAVYYCATAWCDSSWYRSFVGYWGQGTQVTVSS
notes: also called 104G1; not shown: C-terminal c-myc tag and His6 tag
Consider B4, for which the on-rate (kon) (commonly the rate constant with which the complex forms) in the assay with recombinant human DLL4 [8] was 120000 M⁻¹ s⁻¹ and 150000 M⁻¹ s⁻¹. Also, in the assay with recombinant human DLL4 [9], the “IC50 (nM) in the DLL4 proliferation assay (HUVEC, experiment 1)” value is 103 nM and the “IC50 (nM) in the DLL4 proliferation assay (HUVEC, experiment 2)” value amounted to 32 nM.

B5: DLLBII56A09 (VHH)
VHH: EVQLVESGGGLVQPGGSLRLSCAASGFTFDDYAIGWFRQAPGKEPEGISCISSSGGITYYADSVKGRFTTSRDNAKNTVYLQMNSLKPEDTAVYYCATPGIAACRGIHYTGQGTQVTVSS
notes: also called 56A9; DLLBII56A9; not shown: C-terminal c-myc and His6 tags
Regarding B5, in assay [10], the “IC50, DLL4/Notch1 reporter assay (luciferase; co-culture with HEK293-hDII4)” value stood at 540 nM. Further, the binding result in assay [11] is listed as “no binding (tested: 2.5e-7 M)”. For the same molecule, the “concentration giving complete inhibition, HUVEC proliferation assay” value in assay [12] is 10 µM.

The values are drawn from patent US20130078247A1 (Boehringer Ingelheim, published 2013).
